# Measurements taken from US20060100138.
# Legend:
# [1] = system: Synthetic human type III collagen
# [2] = system: Synthetic human type I collagen
# Sequence of Synthetic human type I collagen (chain, as listed by the source, chain 1 of 2): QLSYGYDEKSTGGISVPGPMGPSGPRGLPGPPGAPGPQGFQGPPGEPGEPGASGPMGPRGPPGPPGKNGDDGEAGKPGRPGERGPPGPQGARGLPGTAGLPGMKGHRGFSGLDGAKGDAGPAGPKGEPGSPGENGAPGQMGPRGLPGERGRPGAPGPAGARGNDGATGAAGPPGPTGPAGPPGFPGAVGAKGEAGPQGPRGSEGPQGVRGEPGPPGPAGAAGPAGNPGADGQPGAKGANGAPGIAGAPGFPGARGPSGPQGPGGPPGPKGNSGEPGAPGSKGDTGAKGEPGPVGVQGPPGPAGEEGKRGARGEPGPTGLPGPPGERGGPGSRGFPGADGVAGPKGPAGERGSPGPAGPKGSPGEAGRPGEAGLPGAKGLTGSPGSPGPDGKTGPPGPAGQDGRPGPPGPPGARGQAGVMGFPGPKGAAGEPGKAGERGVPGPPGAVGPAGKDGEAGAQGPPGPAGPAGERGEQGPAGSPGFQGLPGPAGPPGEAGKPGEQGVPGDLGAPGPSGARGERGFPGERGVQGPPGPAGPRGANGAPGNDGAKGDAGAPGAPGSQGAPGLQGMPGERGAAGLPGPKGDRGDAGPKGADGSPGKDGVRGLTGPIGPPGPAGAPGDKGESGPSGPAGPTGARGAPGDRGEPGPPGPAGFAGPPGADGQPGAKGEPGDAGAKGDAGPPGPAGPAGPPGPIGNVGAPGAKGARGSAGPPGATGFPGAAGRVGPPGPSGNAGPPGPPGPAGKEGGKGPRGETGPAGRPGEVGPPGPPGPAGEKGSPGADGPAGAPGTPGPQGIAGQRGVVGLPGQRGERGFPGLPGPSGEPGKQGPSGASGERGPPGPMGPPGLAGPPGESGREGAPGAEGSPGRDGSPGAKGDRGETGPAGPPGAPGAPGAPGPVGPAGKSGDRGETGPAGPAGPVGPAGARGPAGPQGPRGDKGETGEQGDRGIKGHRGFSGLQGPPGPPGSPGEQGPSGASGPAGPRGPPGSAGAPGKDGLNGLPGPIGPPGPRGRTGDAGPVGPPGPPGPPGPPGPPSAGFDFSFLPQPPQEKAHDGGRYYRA
# Sequence of Synthetic human type I collagen (chain, as listed by the source, chain 2 of 2): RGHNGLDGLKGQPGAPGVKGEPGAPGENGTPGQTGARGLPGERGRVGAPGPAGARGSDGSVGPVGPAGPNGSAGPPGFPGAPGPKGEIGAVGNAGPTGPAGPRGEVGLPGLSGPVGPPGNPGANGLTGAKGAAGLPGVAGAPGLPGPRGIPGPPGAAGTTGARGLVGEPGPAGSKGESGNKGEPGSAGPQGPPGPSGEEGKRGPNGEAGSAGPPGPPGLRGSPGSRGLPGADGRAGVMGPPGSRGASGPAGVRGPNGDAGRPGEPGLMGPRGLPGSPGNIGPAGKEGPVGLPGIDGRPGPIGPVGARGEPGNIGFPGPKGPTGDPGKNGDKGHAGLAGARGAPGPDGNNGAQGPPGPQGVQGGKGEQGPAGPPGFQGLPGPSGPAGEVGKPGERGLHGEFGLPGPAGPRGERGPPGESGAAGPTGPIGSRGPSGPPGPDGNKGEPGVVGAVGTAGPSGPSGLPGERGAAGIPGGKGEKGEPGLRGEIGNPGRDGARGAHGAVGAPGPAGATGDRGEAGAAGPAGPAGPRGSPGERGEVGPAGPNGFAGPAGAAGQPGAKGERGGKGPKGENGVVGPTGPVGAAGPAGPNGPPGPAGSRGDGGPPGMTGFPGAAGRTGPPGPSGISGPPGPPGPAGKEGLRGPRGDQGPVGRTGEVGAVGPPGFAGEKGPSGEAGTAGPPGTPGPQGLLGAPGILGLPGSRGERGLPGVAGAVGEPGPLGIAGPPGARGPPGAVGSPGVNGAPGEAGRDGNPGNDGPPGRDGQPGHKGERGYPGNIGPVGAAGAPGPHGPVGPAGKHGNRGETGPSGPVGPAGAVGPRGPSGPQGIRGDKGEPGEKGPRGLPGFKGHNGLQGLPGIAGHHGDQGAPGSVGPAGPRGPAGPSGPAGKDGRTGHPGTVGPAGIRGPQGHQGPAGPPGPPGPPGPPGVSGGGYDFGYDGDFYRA
# Sequence of MMP-8 (collagenase 2, neutrophil collagenase) (chain, as listed by the source): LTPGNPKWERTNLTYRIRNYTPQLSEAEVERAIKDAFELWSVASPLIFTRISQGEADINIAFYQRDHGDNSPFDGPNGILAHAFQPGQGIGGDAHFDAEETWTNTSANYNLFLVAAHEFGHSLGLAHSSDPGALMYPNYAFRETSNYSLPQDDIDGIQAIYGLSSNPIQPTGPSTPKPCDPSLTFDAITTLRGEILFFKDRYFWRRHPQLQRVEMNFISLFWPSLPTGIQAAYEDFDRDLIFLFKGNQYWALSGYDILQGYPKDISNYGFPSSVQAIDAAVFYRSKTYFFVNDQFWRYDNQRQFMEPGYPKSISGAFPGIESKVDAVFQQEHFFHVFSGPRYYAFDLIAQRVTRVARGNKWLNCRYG
# Sequence of Synthetic human type III collagen (chain, as listed by the source): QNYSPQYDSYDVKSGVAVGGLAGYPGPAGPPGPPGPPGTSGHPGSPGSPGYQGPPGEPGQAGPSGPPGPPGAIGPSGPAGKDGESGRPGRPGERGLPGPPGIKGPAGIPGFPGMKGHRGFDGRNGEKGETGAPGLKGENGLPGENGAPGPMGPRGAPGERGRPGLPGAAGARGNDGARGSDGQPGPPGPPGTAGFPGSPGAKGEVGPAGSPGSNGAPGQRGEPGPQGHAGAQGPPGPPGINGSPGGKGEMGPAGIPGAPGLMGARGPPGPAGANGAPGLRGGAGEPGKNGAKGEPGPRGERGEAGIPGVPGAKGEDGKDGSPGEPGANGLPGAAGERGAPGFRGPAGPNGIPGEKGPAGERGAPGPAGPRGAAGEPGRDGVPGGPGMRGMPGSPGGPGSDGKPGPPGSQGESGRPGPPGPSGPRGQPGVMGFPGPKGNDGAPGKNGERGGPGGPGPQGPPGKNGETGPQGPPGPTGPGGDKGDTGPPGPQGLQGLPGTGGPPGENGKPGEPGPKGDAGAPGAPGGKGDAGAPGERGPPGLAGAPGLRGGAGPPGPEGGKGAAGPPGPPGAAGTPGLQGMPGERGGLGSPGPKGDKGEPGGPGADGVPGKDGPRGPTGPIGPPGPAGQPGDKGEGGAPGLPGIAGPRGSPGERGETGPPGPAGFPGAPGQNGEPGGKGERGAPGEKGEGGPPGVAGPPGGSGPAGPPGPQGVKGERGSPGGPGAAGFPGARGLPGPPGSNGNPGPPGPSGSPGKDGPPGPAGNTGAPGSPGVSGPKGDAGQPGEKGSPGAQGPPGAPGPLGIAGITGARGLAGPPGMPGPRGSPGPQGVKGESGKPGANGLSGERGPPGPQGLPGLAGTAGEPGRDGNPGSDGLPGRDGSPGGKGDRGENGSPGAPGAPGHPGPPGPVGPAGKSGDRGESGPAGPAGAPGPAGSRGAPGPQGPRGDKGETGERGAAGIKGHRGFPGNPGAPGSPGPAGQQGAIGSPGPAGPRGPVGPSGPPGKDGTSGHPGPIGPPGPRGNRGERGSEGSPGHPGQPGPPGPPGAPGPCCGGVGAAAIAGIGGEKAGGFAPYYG
substance,measurement,setting,value
"MMP-8 (collagenase 2, neutrophil collagenase)","cleavage of collagen (SDS-PAGE after 1, 2 and 7 days at 37 C)",[1],both synthetic human type I and type III collagen were cleaved by MMP-1 (FIG. 1A) and MMP-8 (FIG. 1B)
same,extent of degradation of collagen (SDS-PAGE),[1],Synthetic human type III collagen was degraded by MMP-1 to a greater extent than by MMP-8
same,"cleavage of collagen (SDS-PAGE after 1, 2 and 7 days at 37 C)",[2],both synthetic human type I and type III collagen were cleaved by MMP-1 (FIG. 1A) and MMP-8 (FIG. 1B)
